According to EP4545563A1, “ANTIBODIES TARGETING ITGA2 AND ANTIBODY-DRUG […]” (Foreseen Technology (Beijing) Co., Ltd., priority 2022, dated 2024):

Assays:
A431 = assay: ADC cancer cell killing, Cell-Titer-Glo 2.0; type: cell-based, human
Experimental: (§1) Human bile duct cancer cells HuCC-T1 available from Zhejiang MeisenCTCC, human epidermal cancer cells A431 available from Procell Life Science&Technology Co.,Ltd. (Wuhan) and Chinese hamster ovary cells CHO from negative control ATCC were seeded into a 96-well plate at 2500 cells/well. It was then incubated in a 5% CO2 incubator overnight at 37°C. Half of the medium was removed from the cell plate on the next day. A 2x hIgG1 (negative control antibody, provided by Biointron), Vatelizumab, FS002-A1-vc-MMAE, FS002-A15-vc-MMAE, FS002-A36-vc-MMAE, Vatelizumab-ve-MMAE, hIgG1-vcMMAE (negative control ADC, provided by ChemPartner) was prepared with a complete culture medium, and then diluted at a 3-fold gradient with 11 specific concentration points in total. Serial dilutions of the above molecules were added to the appropriate wells, and it was then incubated in a 5% CO2 incubator for 5 days at 37°C. After the incubation, 100 uL of Cell-Titer-Glo 2.0 reagent was added to the 96-well plate. It was then well mixed on a plate shaker for 2 minutes, and finally equilibrated at room temperature for 10 minutes. Readings were taken using a microplate reader. Finally, IC50 was used to compare the biological activity of the ADC against each cell line.

HuCC-T1 = assay: ADC cancer cell killing, Cell-Titer-Glo 2.0; type: cell-based, human
Experimental: as §1

CHO = assay: ADC cell killing in negative control cells, Cell-Titer-Glo 2.0; type: cell-based, Chinese hamster
Experimental: as §1

[1] = result in words, summary of Table 9

B1: Vatelizumab-ve-MMAE: antibody-drug conjugate of the positive control antibody Vatelizumab with vc-MMAE as the linker-payload (conjugate, chains of the INN, looked up)
VH: QVQLQESGPGLVKPSETLSLTCTVSGFSLTNYGIHWIRQPPGKGLEWLGVIWARGFTNYNSALMSRLTISKDNSKNQVSLKLSSVTAADTAVYYCARANDGVYYAMDYWGQGTLVTVSS
VL: DFVMTQSPAFLSVTPGEKVTITCSAQSSVNYIHWYQQKPDQAPKKLIYDTSKLASGVPSRFSGSGSGTDYTFTISSLEAEDAATYYCQQWTTNPLTFGQGTKVEIK
modifications: vc-MMAE payload
IC50 (A431; human epidermal cancer cells A431, incubated 5 days at 37°C): 0.08 nM
killing effect on A431 (A431; [1]): good killing effect
IC50 (HuCC-T1; Human bile duct cancer cells HuCC-T1, incubated 5 days at 37°C): 0.89 nM
killing effect on HuCC-T1 (HuCC-T1; [1]): good killing effect
IC50 (CHO; negative control cells CHO, incubated 5 days at 37°C): > 207 nM
killing effect on negative control cells CHO (CHO; [1]): no killing effect
